Changes are numbered by the printed parent chain.

The source of these data is patent US20220411514A1, “ANTI-GAL3 ANTIBODIES AND METHODS OF USE FOR INSULIN RESISTANCE” (TrueBinding, Inc., priority 2021, published 2022).

The labels stand for the following.
B1: 847.28D1: anti-Gal3 antibody (antibody, V domains shown)
VH: QVQLVETGPGLVAPSQSLSITCTVSGFSLTSYGVHWIRQSPGKGLEWLGTIWAGGSTDYNSPLMSRLSISKDNSKNQVFLKMNSLQIDDTAIYYCASPPSGYDYDVFASWGQGTLVTVSA
VL: DIRMTQSPASLSASVGETVTITCRASGNIHNYLAWYHQKQGKSPQLLVYNVKTLADGVPSRFSGSGSGTQFSLKINSLQPEDFGTYYCQHFWSIFPTFGGGTKLEIK
B2: 847.3B3: anti-Gal3 antibody (antibody, V domains shown)
VH: B1 VH with V5K, T7S, S40P, T50G, S70T, N76S, I87S, I92M, S109Y
VL: B1 VL with R3L, H37Q, N50S, V51A, N76D, I94L
B3: 847.13E2-mH0mL1: anti-Gal3 antibody (antibody, V domains shown)
VH: EVQLQQSGPELVKPGASVKVSCKASGYSFTDYNMYWVMQSHGKSLEWIGYIDPYNDATSYSQKFTGKATLTVDKSSSTAFMHLNSLTSEDSAVYYCARWGRYEYYAMDYWGQGTSVTVSS
VL: DIVMTQSPASLPVSLGQRATISCRASKSVTTSAYSYIHWYQQRPGQPPKLLIYLASNLESGVPARFSGSGSGTDFTLNIHPVEEEDAATYYCQHNRELPPTFGGGTKLEIN
B4: 847.13E2-mH0mL2: anti-Gal3 antibody (antibody, V domains shown)
VH: B3 VH
VL: DIVLTQSPATLSVTPGDSVSFSCRASQIINNNLHWYQQKSHESPRLLIRYTSQSISGIPSRFSGSGSGTDFTLSINNVETEDFGMYFCQQTNSWPLTFGAGTKLELK
B5: 849.1D2: anti-Gal3 antibody (antibody, V domains shown)
VH: QVQLKESGPVLVAPSQSLSITCTVSGFSLSSYGVHWVRQPPGKGLEWLGVIWAGGSTDYDSALMSRLSISKDNSKSQVFLKMDSLQTDDTAMYYCAKPPYDYDGAWFAYWGQGTLVTVSA
VL: DVVMTQTPKFLLVSAGDRVTITCKASQSVSSDVAWYQQKPGQSPKLLIYFASNRYTGVPDRFTGSGYGTDFTFTISTVQAEDLAVYFCQHNYISPFTFGGGTKLEIK
B6: 847.23F11: anti-Gal3 antibody (antibody, V domains shown)
VH: QVQLQQSGAELVRPGASVKLSCKASGYTFTSSWMNWVKQRPGQGLDWIGMIDPSDSETHYNQMFKDKATLTVDKSSNTAYMQLSRLTSEDSAVYYCVNSNYESGYWGQGTTLTVSS
VL: DILMTQSHKFMSTSVGDRVSITCKASQDVSSVVVWYQQKPGQSPKQLIYWASTRHTGVPDRFTGSGSGTDYTLTISSVQAEDLALYYCQQHYSTPYTFGGGTKLEIK
B7: 2D10-hVH4-HVL2: anti-Gal3 antibody, VH SEQ ID NO: 807, VL SEQ ID NO: 822 (antibody, V domains shown)
VH: QVQLVQSGAEVKKPGASVKVSCKASGYTFTDYYINWVRQAPGQRLEWMGWIYPGSQDTKYNEKFQGRVTLTVDTSASTAYMELSSLRSEDTAVYFCANYFGSSGWFFDVWGQGTMVTVSS
VL: DIVMTQSPLSLPVTPGEPASISCRSSKSLLHSDGITYLYWYLQKPGQSPQLLIYRMSNLASGVPDRFSGSGSGTDFTLKISRVEAEDVGVYYCAQMIEFPLTFGQGTKLEIK
modifications: VH-81 Peptide Sequence; VL-79 Peptide Sequence
B8: 2D10-hVH3-HVL3: anti-Gal3 antibody, VH SEQ ID NO: 812, VL SEQ ID NO: 827 (antibody, V domains shown)
VH: B7 VH with N61S, E62Q, L70I, F95Y
VL: B7 VL with I2V, P15L, E17Q, L42Q, K44R, Q50R, L59R, A60D
modifications: VH-86 Peptide Sequence; VL-84 Peptide Sequence
B9: 2D10-hVH3-HVL2: anti-Gal3 antibody, VH SEQ ID NO: 811, VL SEQ ID NO: 826 (antibody, V domains shown)
VH: B7 VH with N61S, E62Q, L70I, F95Y
VL: B7 VL
modifications: VH-85 Peptide Sequence; VL-83 Peptide Sequence
B10: 2D10-hVH4-HVL4: anti-Gal3 antibody, VH SEQ ID NO: 809, VL SEQ ID NO: 824 (antibody, V domains shown)
VH: B7 VH
VL: B7 VL with P15L, E17Q, L42Q, K44R, A60D
modifications: VH-83 Peptide Sequence; VL-81 Peptide Sequence
B11: 2D10-hVH3-HVL1: anti-Gal3 antibody, VH SEQ ID NO: 810, VL SEQ ID NO: 825 (antibody, V domains shown)
VH: B7 VH with N61S, E62Q, L70I, F95Y
VL: B7 VL with L59R
modifications: VH-84 Peptide Sequence; VL-82 Peptide Sequence
B12: 2D10-hVH4-HVL3: anti-Gal3 antibody, VH SEQ ID NO: 808, VL SEQ ID NO: 823 (antibody, V domains shown)
VH: B7 VH
VL: B7 VL with I2V, P15L, E17Q, L42Q, K44R, Q50R, L59R, A60D
modifications: VH-82 Peptide Sequence; VL-80 Peptide Sequence

T1 sequence (P17931 whole entry): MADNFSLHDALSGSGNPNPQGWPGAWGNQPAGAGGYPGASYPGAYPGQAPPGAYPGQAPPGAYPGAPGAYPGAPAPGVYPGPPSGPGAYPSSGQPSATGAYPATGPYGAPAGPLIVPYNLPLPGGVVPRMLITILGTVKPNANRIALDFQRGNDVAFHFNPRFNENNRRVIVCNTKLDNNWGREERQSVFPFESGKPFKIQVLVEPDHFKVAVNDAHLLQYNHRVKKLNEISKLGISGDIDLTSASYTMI

The first assay addresses T1, human Gal3 (Homo sapiens, UniProt P17931).
T1 construct: 6xHis (linker-spaced) (C); purchased AcroBio (Acro Biosystems) GA3-H5129
The experiment in a line: Epitope binning, sandwich format, SPR Carterra LSA (Example 8). It is filed as binding.
Conditions: not given
Here is the method:
The epitope binning assay was done in a sandwich format on the high-throughput SPR-based Carterra LSA unit (CarterraBio, Salt Lake City, Utah). First, the purified antibodies were diluted to 10 μg/ml concentration in 10 mM NaOAc (pH 5.0) and then were covalently coupled via amine group to HC200M chip activated by EDC and S-NHS to immobilize antibodies to different positions of a 384-spot array. One hundred thirty-eight binning cycles were run on the array of immobilized antibodies. In each cycle, first, human Gal3 (AcroBio GA3-H5129) was injected over the entire array to bind to different antibodies (primary antibody), followed by one antibody (secondary antibody) selected among the panel of 150 anti-GAL3 antibodies tested. At the end of each cycle, the array was regenerated by 10 mM Glycine (pH 2.0) to remove bound antigen and secondary antibody from the array. The data analysis was done using the Epitope software by CarterraBio.
As for B1, the “epitope bin (mutual competitive binding for Gal3)” value (shortened to “epitope bin”) was “CRD”. Take B2: the “epitope bin” value is on record as “CRD”. In the case of B3, the “epitope bin” value is recorded as “CRD”. For B4, the “epitope bin” value is reported as “CRD”. Turning to B5, the “epitope bin” value amounted to 11. Same read-out and setting: the entry for B6 is “CRD”.

The target of another assay is T2, Human Gal3 peptides (Homo sapiens, UniProt P17931).
T2 construct: purchased LifeTein custom order
The experiment in a line: Gal3 peptide binding ELISA (Example 8). The note with it: antibody 5 μg/mL. Here is the method:
Gal3 peptide binding activity of additional exemplary anti-Gal3 antibodies was assessed with the same peptides as described in FIG. 18 (SEQ ID NOs: 3-26). Human Gal3 peptides (LifeTein, custom order) and human Gal3 proteins (R&D Systems, 8259-GA; TrueBinding, QCB200349) were diluted in PBS (Corning, 21-030-CM) to concentrations of at least 100 μg/mL (peptides) or 1 μg/mL (proteins), and added to the wells of several 96-well ELISA plates (Thermo Fisher, 44-2404-21). After incubating the plates at 4° C. overnight, the plates were washed three times with PBST (PBS with 0.05% Tween 20 [VWR, 0777]). The plates were then blocked for an hour with 2% BSA (EMD Millipore, 126609) in PBST at room temperature with gentle rocking. Thereafter, the 2% BSA in PBST was discarded and Gal3-binding antibodies (reformatted hIgG4 [S228P]) were diluted in 2% BSA in PBST to concentrations of 5 μg/mL and added to the wells. The plates were incubated for an hour at room temperature with gentle rocking and then washed three times with PBST. Afterwards, Peroxidase AffiniPure F(ab′)2 Fragment Goat Anti-Human IgG (H+L) polyclonal antibody (Jackson ImmunoResearch, 109-036-003), was diluted in 2% BSA in PBST (1:4000) and added to the wells. The plates were incubated for 1 hour at room temperature with gentle rocking and then washed three times with PBST. TMB substrate (Thermo Scientific, 34029) was then added to each well. The reaction was stopped with 1M HCl (JT Baker, 5620-02) and read using a plate reader (Molecular Devices) at absorbance of 450 nm.
A general note: ELISA stands for enzyme-linked immunosorbent assay.
For B1, the “binding to Gal3 peptide 6 (SEQ ID NO: 8)” value is “bound”.

For B2, the “binding to Gal3 peptide 17 (SEQ ID NO: 19)” value (shortened to “binding … (SEQ ID NO: 19)”) was “bound”.

In the case of B3, the “binding to Gal3 peptide 13 (SEQ ID NO: 15)” value (“binding … (SEQ ID NO: 15)” for short) is “bound” and the “binding … (SEQ ID NO: 19)” value is given as “bound”. B4: the “binding … (SEQ ID NO: 15)” value was “bound” and the “binding … (SEQ ID NO: 19)” value is “bound”. In the case of B5, the “binding to Gal3 peptide 1 (SEQ ID NO: 3)” value is recorded as “bound” and the “binding … (SEQ ID NO: 19)” value is on record as “bound”. On to B6, for which the “binding … (SEQ ID NO: 15)” value is listed as “bound” and the “binding … (SEQ ID NO: 19)” value is recorded as “bound”.

The subject of another assay is GLUT4 translocation in L6 GLUT4myc myoblasts. In words: Insulin-stimulated GLUT4 translocation with Gal3 and anti-Gal3 antibody. It is filed as cell-based, rat. The note with it: 30 μg/mL Gal3 pre-incubated with 60 μg/mL antibody, 100 nM insulin. Here is the method:
Rat L6 GLUT4myc myoblasts (Kerafast #ESK202-FP) express a Myc-tagged GLUT4 that can be detected with an anti-Myc antibody. These cells were grown in a 48-well plate in MEM u growth media (Gibco, #12-571-063)+10% fetal bovine serum (FBS; Corning #35-016-CV) until 90-95% confluence was reached. Cells were then washed in PBS and serum starved for 2 hours in MEM u growth media without FBS. Thirty (30) μg/mL recombinant human Gal3 (TrueBinding QCB200347) was pre-incubated with 60 μg/mL anti-Gal3 antibodies for 30 minutes before being added to the serum-starved cells for 1 hour at 37° C. At the end of incubation, half of the cells were treated with 100 nM insulin (Sigma-Aldrich #I5523-50MG) for 20 minutes while the other half acted as basal controls. After 20 minutes, cells were washed quickly with ice cold PBS twice, then incubated with 4% paraformaldehyde (Boster Bio #AR1068) for 10 minutes on ice followed by 10 minutes at room temperature. The cells were washed three times with PBS, then blocked with 0.5 mL 5% goat serum (Vector Laboratories #101098-382) in PBS for 15 minutes. After the blocking agent was aspirated from the cells, 1 μg/ml anti-Myc polyclonal antibody (Sigma-Aldrich #C-3956) in 5% goat serum was added for 1 hour. […] Primary antibody was aspirated away, and then cells washed 5 times with PBS. Next, cells (including background controls) were incubated with 1:1000 goat anti rabbit antibody secondary antibody (Abcam #Ab97051) in 5% Goat serum for 30 minutes at room temperature. After washing, cells were incubated with 400 μL of TMB (Thermo Scientific #PI34029) for 5 minutes, then 200 μL of 1N HCL (Avantor Performance #JT5620-2) was added to stop the reaction. 100 μL of the sample was transferred to a 96 well plate with duplicates transferred for each condition. Samples were read at 450 nm on a SpectraMax plate reader. […] The fold changes were plotted on GraphPad Prism and presented as mean (SEM) of the technical replicates. Statistical significance was determined using unpaired T-tests comparing samples treated with Gal3 and insulin with all other conditions.
For the molecule B7, the “effect on Gal3 block of insulin-stimulated GLUT4 translocation” value (“effect on Gal3 block” below) is reported as “reduce the ability of Gal3 to block GLUT4 translocation”. Same read-out and setting: the result for B8 reads “reduce the ability of Gal3 to block GLUT4 translocation”.

As to B9, the “effect on Gal3 block” value is recorded as “reduce the ability of Gal3 to block GLUT4 translocation”.

B10: the “effect on Gal3 block” value is “reduce the ability of Gal3 to block GLUT4 translocation”. Turning to B11, the “effect on Gal3 block” value is given as “reduce the ability of Gal3 to block GLUT4 translocation”. Consider B12, for which the “effect on Gal3 block” value is given as “reduce the ability of Gal3 to block GLUT4 translocation”.
